Assay results published in patent US20230105029A1 (CHIA TAI TIANQING PHARMACEUTICAL GROUP, published 2023).
Like-named read-outs stand apart in the source and are kept apart here.

Tests used:
[1] = target: human IL4Rα expressed on HEK293T-IL4Rα-STAT6-STAT6LUC-LB2 cells (human, UniProt P24394 26-825); assay: cell-based or functional assay
[2] = target: T1, recombinant human IL4Rα-his protein (in house made) (human, UniProt P24394 26-232, limits assumed); assay: capture ELISA, biotin-IL4Rα-his
T1 construct: also called Human IL4Ra-his

[3] = target: T2, human IL4Rα expressed on 293F-IL4Rα cells (human, UniProt P24394 26-825); assay: flow cytometry, 293F-IL4Rα cells
T2 construct: whole, on cells; also called cell surface human IL4Rα
Method: Then, 2×10⁵ cells per well in 96 well-plates were incubated in 100 μL of the anti-IL4Rα antibodies or controls of various concentrations (starting at 80 nM with a 4-fold serial dilution) in FACS buffer for 40 minutes on ice. […] Following an incubation of 40 minutes at 4° C. in dark, cells were washed three times and resuspended in FACS buffer. Fluorescence was measured using a Becton Dickinson FACS Canto II-HTS equipment. Data was analyzed using Graphpad Prism software and EC₅₀ values were reported.

[4] = target: T3, marmoset monkey IL4Rα-his protein (marmoset monkey); assay: indirect ELISA, coated cal-IL4Rα-his
T3 construct: Custom made by Sino biological; no cleavage site stated; also called cal-IL4Rα-his; Cal-IL4Rα
T3 chain: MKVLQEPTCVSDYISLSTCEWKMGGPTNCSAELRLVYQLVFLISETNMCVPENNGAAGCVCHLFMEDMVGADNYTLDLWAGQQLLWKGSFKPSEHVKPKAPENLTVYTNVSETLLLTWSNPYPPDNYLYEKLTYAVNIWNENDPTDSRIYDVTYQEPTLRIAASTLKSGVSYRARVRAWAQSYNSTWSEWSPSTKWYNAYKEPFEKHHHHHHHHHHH

[5] = target: T4, cynomolgus monkey IL4Rα-his protein (cynomolgus monkey, UniProt A0A2K5V580 33-239); assay: indirect ELISA, coated cyno IL4Rα-his
T4 construct: Bought protein; also called Cynomolgus IL4Rα; Cyno-IL4Rα-his; not shown: his tag

[6] = target: T2, human IL4Rα expressed on 293F-IL4Rα …; assay: flow cytometry on 293F-IL4Rα cells
[7] = target: T3, marmoset monkey IL4Rα-his protein; assay: indirect ELISA on coated cal-IL4Rα-his
[8] = target: T1, recombinant human IL4Rα-his protein (in …); assay: SPR (Biacore), antibody captured, IL4Rα-his flowed
[9] = target: T1, recombinant human IL4Rα-his protein (in …); assay: SPR (Biacore), antibody captured, IL4Rα-his flowed; remark: listed apart in the source
[10] = target: T4, cynomolgus monkey IL4Rα-his protein; assay: indirect ELISA on coated cynomolgus IL4Rα-his
[11] = target: T2, human IL4Rα expressed on 293F-IL4Rα …; assay: flow cytometry, blocks biotin-IL4 binding to 293F-IL4Rα cells
Method: Then, 1×10⁵ cells per well in 96 well-plates were incubated in 100 μL of the anti-IL4Rα antibodies or controls of various concentrations (starting at 80 nM with a 4-fold serial dilution) in FACS buffer for 40 minutes on ice. The plates were washed twice with FACS buffer, and added and incubated for 40 minutes at 4° C. in dark with 100 μl/well 1.67 nM biotin-labeled human IL4 protein (Sino biological inc., Cat #11846-HNAE). The plates were washed twice with FACS buffer, and then added and incubated for 40 minutes at 4° C. in dark with 100 μl/well R-Phycoerythrin Streptavidin (1:500 dilution in FACS buffer, Jackson Immunoresearch, Cat #016-110-084). Cells were washed twice and resuspended in FACS buffer. Fluorescence was measured using a Becton Dickinson FACS Canto II-HTS equipment. Data was analyzed using Graphpad Prism software and IC₅₀ values were reported.

[12] = target: T1, recombinant human IL4Rα-his protein (in …); assay: competitive ELISA, blocks biotin-IL4 binding to coated IL4Rα-his
Method: Serially diluted anti-IL4Rα antibodies or the controls (starting at 80 nM with a 4-fold serial dilution) in 2.5% w/v non-fatty milk in PBST, 100 μl per well, were added to the IL4Rα bound plates, and incubated with the human IL4Rα-his proteins at 37° C. for 40 minutes. Plates were washed 4 times using wash buffer, and then added and incubated for 40 minutes at 37° C. with 100 μl/well of 0.56 nM biotin-labeled human IL4 protein (Sino biological inc., Cat #11846-HNAE). Plates were washed again using wash buffer. Thereafter, the plates were added with 100 μl/well of streptavidin conjugated HRP (1:10000 dilution in PBST buffer, Jackson Immunoresearch, Cat #016-030-084) and incubated for 40 minutes at 37° C. Plates were washed again using wash buffer. Finally, TMB was added and the reaction was stopped using 1M H₂SO₄, and the absorbance was read at 450 nm. Data was analyzed using Graphpad Prism software and IC₅₀ values were reported.

[13] = target: T2, human IL4Rα expressed on 293F-IL4Rα …; assay: flow cytometry on 293F-IL4Rα cells, blocked ligand biotin human IL4
[14] = target: T1, recombinant human IL4Rα-his protein (in …); assay: competitive ELISA, blocks biotin-IL4Rα-his binding to coated Benchmark (competitor)
Method: The ability of the anti-IL4Rα antibodies of the disclosure to block benchmark-human IL4Rα binding was measured in a competitive ELISA assay. Briefly, the benchmark was coated on 96-well micro plates at 2 μg/mL in PBS, 100 μl per well, and incubated overnight at 4° C. The next day, plates were washed with wash buffer (PBS+0.05% w/v Tween-20, PBST), and blocked with 5% w/v non-fatty milk in PBST for 2 hours at 37° C. tiring plate blocking, the anti-IL4Rα antibodies of the disclosure or controls were diluted with biotin labeled human IL4Rα-his proteins (prepared in-house with SEQ ID NO: 57, 0.55 nM in 2.5% w/v non-fatty milk in PBST), starting at 100 nM with a 4-fold serial dilution, and incubated at 25° C. for 40 minutes. After plate washing, the antibody/IL4Rα-his mixtures were added to benchmark coated plates, 100 μl per well. After incubation at 37° C. for 40 minutes, plates were washed using wash buffer. Then the plates were added and incubated with 100 μl/well streptavidin conjugated HRP for 40 minutes at 37° C. to detect biotin-labeled human IL4Rα-his bound to plates. Plates were washed again using wash buffer. Finally, TMB was added and the reaction was stopped using 1M H₂SO₄, and the absorbance was read at 450 nm. Data was analyzed using Graphpad Prism software and IC₅₀ values were reported.

[15] = target: T1, recombinant human IL4Rα-his protein (in …); assay: competitive ELISA: coated human IL4Rα-his, blocked ligand biotin human IL4
[16] = target: T1, recombinant human IL4Rα-his protein (in …); assay: capture ELISA: antibody captured on anti-IgG Fc plate, biotin human IL4Rα-his detected
[17] = target: T1, recombinant human IL4Rα-his protein (in …); assay: competitive ELISA: antibody mixed with biotin human IL4Rα-his, competitor plate-coated Benchmark

| Binder | Inhibition on IL4 induced STAT6 phosphorylation (IC50, nM) [1] [nM] | Inhibition on IL13 induced STAT6 phosphorylation (IC50, nM) [1] [nM] | EC50 [2] [nM] | EC50 [3] [nM] | EC50 [4] [nM] | EC50 [5] [nM] | EC50 [6] [nM] | EC50 [7] [nM] | Dissociation % [8] [%] | End (RU) [8] [RU] | Kd [8] [nM] | Start (RU) [8] [RU] | koff [8] [s⁻¹] | kon [8] [M⁻¹ s⁻¹] | Kd [9] [nM] | EC50 [10] [nM] | IC50 [11] [nM] | IC50 [12] [nM] | IC50 [13] [nM] | IC50 [14] [nM] | other results |
| --- | --- | --- | --- | --- | --- | --- | --- | --- | --- | --- | --- | --- | --- | --- | --- | --- | --- | --- | --- | --- | --- |
| huC2C1A1A1-V14 (antibody, human IgG4 S228P, kappa, V domains shown, Humanized, human IgG4/kappa) VH: EVQLVESGGGLVQPGGSLRLSCAASGFTFSTYGMSWVRQAPGKGLVWVATINSNGGSTSYPDSVKGRFTISRDNAKNTLYLQMNSLRAEDTAVYYCARFFRFRNAMDYWGQGTLVTVSS VL: DIQMTQSPSSLSASVGQRVTITCRTSENIYSYLAWYQQKQGKPPRFLIYNAKTLAEGVPSRFSGSGSGTEFTLTITSLQAEDFGVYYCQHYYGPPTWTFGPGTKLEIKR | 0.64 | 0.73 | 0.06 | 0.39 | 0.55 | 0.68 | 0.39 | 0.555 | 0.8 | 50.5 | < 0.0654 | 50.1 | < 1e-05 | 153000 | 0.642 | 0.677 | 0.58 | 2.17 | 0.578 | 0.17 | IC50 [15]: 2.17 nM; EC50 [16]: 0.0616 nM; IC50 [17]: 0.171 nM |
| huC2C1A1A1-V15 (antibody, human IgG4, V domains shown, Humanized, human IgG4/kappa) VH: EVQLVESGGGLVQPGGSLRLSCAASGFTFSTYGMSWVRQAPGKGLVWVATINSNGGSTSYPDSVKGRFTISRDNAKNTLYLQMNSLRAEDTAVYYCARFFRFRNAMDYWGQGTLVTVSS VL: DIQMTQSPSSLSASVGDRVTITCRTSENIYSYLAWYQQKPGKAPKFLVYNAKTLAEGVPSRFSGSGSGTDFTLTISSLQPEDFATYYCQHYYGPPTWTFGQGTKVEIKR | 0.61 | 0.6 | 0.05 | 0.31 | 0.41 | 0.52 | 0.311 | 0.412 | 0.29 | 69.2 | < 0.0435 | 69 | < 1e-05 | 230000 | 0.447 | 0.517 | 0.5 | 2.03 | 0.502 | 0.16 | IC50 [15]: 2.03 nM; EC50 [16]: 0.0474 nM; IC50 [17]: 0.159 nM |
